Data taken from US9879094B2, “Nucleic acid molecules encoding for BACE1 antibodies” (Genentech, Inc., priority 2010, dated 2018).
Where “and” joins values, the source holds several entries; their conditions need not be identical. Equal values may be shown once.

Legend:
BACE1 = BACE1 (Homo sapiens, UniProt P56817); assay: HTRF BACE1 enzyme activity assay (long peptide Bi27); format: biochemical; conditions: IgG, long peptide substrate
Experimental: The HTRF assay was performed as follows. […] The proteolytic reaction mixture was incubated at ambient temperature for 75 minutes and was quenched by the addition of 5 μL HTRF detection mixture containing 2 nM Streptavidin-D2 and 150 nM of 6E10 anti-amyloid beta antibody (Covance, Emoryville, Calif.) labeled with Europium cryptate in detection buffer (200 mM Tris pH 8.0, 20 mM EDTA, 0.1% BSA, and 0.8M KF). The final reaction mixture was incubated at ambient temperature for 60 minutes and the TR-FRET signal was measured using an EnVision Multilabel Plate Reader™ (Perkin-Elmer) at an excitation wavelength of 320 nm and emission wavelengths of 615 and 665 nm. Reactions lacking BACE1 enzyme (0 BACE) and reactions containing lacking anti-BACE1 antibodies (PBS (100% BACE1 Activity) were used as controls.
Fab proteins of 6 clones were purified and subjected for HTRF enzyme activity assay, as described above.
The affinity matured YW412.8.31 anti-BACE1 antibody was tested in a HTRF assay as described in Example 1. […] Additionally, reactions using a short FRET peptide (Rh-[…]-quencher (SEQ ID NO:54), Invitrogen) were also performed identically to the HTRF reactions. The resulting fluorogenic products from the control reactions were measured as above, but at an excitation wavelength of 545 nm and an emission wavelength of 585 nm. Obtained data were analyzed using GraphPad Prism 5™ (LaJolla, Calif.).

[1] = Antibody concentration in brain of hAPP transgenic mice; format: in vivo, mouse
Experimental: Briefly, 5-month old human APP-expressing mice were treated with 30 mg/kg or 100 mg/kg YW412.8.31 antibody or vehicle by intra-peritoneal injection every four days for a total of three doses (i.e., at days 1, 5, and 9). Animals were euthanized two hours post the final dose. Serum, plasma, and brains were harvested and processed. Plasma, cortex and hippocampus were analyzed for levels of soluble Aβ1-40 and Aβ1-42 using an Amyloid beta (Aβ) ELISA test kit per manufacture's instructions (The Genetics Company). Pharmacokinetic analysis was performed on serum and brain homogenates.
Similar experiments were also performed in which YW412.8.31 anti-BACE1 antibody was delivered systemically or directly into hAPP transgenic mice brains by continuous ICV infusion. For ICV delivery, antibody was delivered continuously for 7 days via an Alzet osmotic minipump (model 2001) implanted unilaterally. The amount of YW412.8.31 antibody delivered was 0.041 mg/day (low dose) or 0.41 mg/day (high dose); 0.33 mg/day Control IgG was delivered to the control group. At euthanasia, plasma, cortex, and hippocampus were harvested and analyzed for levels of soluble Aβ1-40 and Aβ1-42 by ELISA (The Genetics Company) following manufacturer's instructions.
Total anti-BACE1 antibody concentrations in mouse serum and brain samples were measured as follows. Antibody concentrations in mouse serum and brain samples were measured using an enzyme-linked immunosorbent assay (ELISA). NUNC 384 well Maxisorp immunoplates (Neptune, N.J.) were coated with F(ab′)2 fragment of donkey anti-human IgG, Fc fragment specific polyclonal antibody (Jackson ImmunoResearch, West Grove, Pa.) overnight at 4° C. Plates were blocked with phosphate-buffered saline (PBS) containing 0.5% bovine serum albumin (BSA) for 1 hour at room temperature the next day. Each antibody (Control IgG and anti-BACE1) was used as a standard to quantify the respective antibody concentrations. After washing plates with PBS containing 0.05% Tween 20 using a microplate washer (Bio-Tek Instruments, Inc., Winooski, Vt.), standards and samples diluted in PBS containing 0.5% BSA, 0.35 M NaCl, 0.25% CHAPS, 5 mM EDTA, 0.05% Tween 20 and 15 ppm Proclin were incubated on plates for 2 hours at room temperature with mild agitation. Bound antibody was detected with horseradish peroxidase conjugated F(ab′)2 goat anti-human IgG, Fc specific polyclonal antibody (Jackson ImmunoResearch). Finally, plates were developed using the substrate 3,3′,5,5′-tetramethyl benzidine (TMB) (KPL, Inc., Gaithersburg, Md.). Absorbance was measured at a wavelength of 450 nm with a reference of 630 nm on a Multiskan Ascent reader (Thermo Scientific, Hudson, N.H.). Concentrations were determined from the standard curve using a four-parameter non-linear regression program.

[2] = tested on: 293-HEK cells stably expressing wild-type human amyloid precursor protein; assay: Aβ1-40 production in 293-HEK cells expressing APP; format: cell-based
Experimental: To determine whether the observed in vitro inhibitory action of the anti-BACE1 antibodies on APP processing was also present in a cellular context, […]. The ability of the antibodies to inhibit Aβ1-40 production in 293-HEK cells stably expressing wild-type human amyloid precursor protein was assessed as follows. 293-APP^WT cells were seeded overnight at a density of 3×10^4 cells/well in a 96-well plate. […] of fresh media (DMEM+10% FBS) containing an anti-BACE1 antibody or a control IgG1 antibody was incubated with the cells for 24 hours at 37° C. A tricyclic small molecule BACE1 inhibitor (BACE1 SMI) was also used as a control ((Compound 8e—Charrier, N. et al. J. Med. Chem. 51:3313-3317 (2008)). The cellular media was harvested and assayed for the presence of Aβ1-40 using a Aβ1-40 HTRF® assay (CisBio) according to the manufacturer's instructions. Aβ1-40 values were normalized for cell viability, as determined using the CellTiter-Glo Luminescent Cell Viability Assay (Promega). Experiments were performed at least three times, and each point in each experiment was repeated in duplicate. Data was plotted using a four-parameter non-linear regression curve-fitting program (Kaleidagraph, Synergy Software).

Chain of BACE1 (P56817 22-457): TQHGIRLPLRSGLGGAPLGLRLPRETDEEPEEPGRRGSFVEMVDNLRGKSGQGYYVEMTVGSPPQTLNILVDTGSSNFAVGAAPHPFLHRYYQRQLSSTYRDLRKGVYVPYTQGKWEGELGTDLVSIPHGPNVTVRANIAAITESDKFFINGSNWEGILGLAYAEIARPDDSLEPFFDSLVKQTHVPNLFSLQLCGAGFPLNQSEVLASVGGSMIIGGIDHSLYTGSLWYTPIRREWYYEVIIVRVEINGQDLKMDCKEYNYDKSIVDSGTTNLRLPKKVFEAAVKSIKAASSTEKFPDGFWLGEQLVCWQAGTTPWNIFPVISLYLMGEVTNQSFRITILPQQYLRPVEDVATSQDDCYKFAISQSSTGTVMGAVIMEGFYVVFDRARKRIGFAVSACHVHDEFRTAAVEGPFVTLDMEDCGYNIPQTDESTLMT

B1: YW412.8.31: affinity matured form of YW412.8 anti-BACE1 antibody (antibody, V domains shown)
VH: EVQLVESGGGLVQPGGSLRLSCAASGFTFLGYGIHWVRQAPGKGLEWVGWISPAGGSTDYADSVKGRFTISADTSKNTAYLQMNSLRAEDTAVYYCARGPFSPWVMDYWGQGTLVTVSS
VL: DIQMTQSPSSLSASVGDRVTITCRASQDVSTAVAWYQQKPGKAPKLLIYSASFLYSGVPSRFSGSGSGTDFTLTISSLQPEDFATYYCQQFPTYLPTFGQGTKVEIK
maximal inhibition (BACE1): 77% | ANTIBODY CONCENTRATION IN BRAIN ([1]; systemic delivery 30 mg/kg): 0.7 μG/G | antibody concentration in brain ([1]; systemic delivery 30 mg/kg): 4.8 ± 3.6 nM and 4.8 nM | ANTIBODY CONCENTRATION IN BRAIN ([1]; systemic delivery 100 mg/kg): 2.1 μG/G | antibody concentration in brain ([1]; systemic delivery 100 mg/kg): 14.0 ± 9.3 nM and 14 nM | inhibition of Aβ1-40 production ([2]; 24 hours, compared to non-BACE1 IgG (Xolair)): inhibited | maximum reduction of Aβ1-40 production ([2]; APP-expressing 293 cells): ~90%
